Experiment [1] concerns the target CK2-phosphorylated XRCC4(1-238)-LigIV(654-911) complex (UniProt Q13426). Put plainly: SEC-MALS. (In general: SEC sorts molecules by how far they enter the pores of the column.)
Experiment [2] has the same target. Kind of experiment: SAXS.

Chain of CK2-phosphorylated XRCC4(1-238)-LigIV(654-911) complex (Q13426 1-238, chain 1 of 2): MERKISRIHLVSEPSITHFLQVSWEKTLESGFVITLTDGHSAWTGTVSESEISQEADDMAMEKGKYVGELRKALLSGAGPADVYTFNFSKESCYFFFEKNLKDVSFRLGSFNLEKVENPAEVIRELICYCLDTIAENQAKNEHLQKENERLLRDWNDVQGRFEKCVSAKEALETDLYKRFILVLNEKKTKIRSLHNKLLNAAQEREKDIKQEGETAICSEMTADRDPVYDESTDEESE
Chain of CK2-phosphorylated XRCC4(1-238)-LigIV(654-911) complex (P49917 654-911, chain 2 of 2, further chain): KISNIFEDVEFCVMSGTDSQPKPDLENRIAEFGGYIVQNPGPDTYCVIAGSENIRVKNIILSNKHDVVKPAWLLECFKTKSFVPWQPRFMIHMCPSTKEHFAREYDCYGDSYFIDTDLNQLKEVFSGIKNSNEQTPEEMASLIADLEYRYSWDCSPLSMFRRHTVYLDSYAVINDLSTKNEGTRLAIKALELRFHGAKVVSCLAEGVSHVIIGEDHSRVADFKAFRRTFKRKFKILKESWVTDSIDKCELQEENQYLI

For the substance “polynucleotide kinase/phosphatase (PNKP), full length, wild type (from UniProt Q96T60 1-521) (enzyme)”, the stoichiometry N (PNKP per pXRCC4 dimer-LigIV complex) in experiment [1] and in experiment [2] was 1 each time.

The record behind these values is publication PMC5449630.
